Test results taken from patent publication US20240010735A1 (EISAI R AND D MANAGEMENT, published 2024).

Columns and labels:
[1] = biological target: T1, mouse EphA1 extracellular region-Fc-His protein (mouse; human, UniProt Q60750 27-548); experiment: ELISA: Fc-His proteins (1 nM) captured on anti-6-His antibody, antibody B 10 µg/mL with human IgG 100 µg/mL, HRP anti-human kappa light chain antibody, OD450 as % of mouse EphA4-Fc-His
T1 construct: extracellular domain; not shown: Fc region of human IgG1; histidine tag
T1 sequence (looked up): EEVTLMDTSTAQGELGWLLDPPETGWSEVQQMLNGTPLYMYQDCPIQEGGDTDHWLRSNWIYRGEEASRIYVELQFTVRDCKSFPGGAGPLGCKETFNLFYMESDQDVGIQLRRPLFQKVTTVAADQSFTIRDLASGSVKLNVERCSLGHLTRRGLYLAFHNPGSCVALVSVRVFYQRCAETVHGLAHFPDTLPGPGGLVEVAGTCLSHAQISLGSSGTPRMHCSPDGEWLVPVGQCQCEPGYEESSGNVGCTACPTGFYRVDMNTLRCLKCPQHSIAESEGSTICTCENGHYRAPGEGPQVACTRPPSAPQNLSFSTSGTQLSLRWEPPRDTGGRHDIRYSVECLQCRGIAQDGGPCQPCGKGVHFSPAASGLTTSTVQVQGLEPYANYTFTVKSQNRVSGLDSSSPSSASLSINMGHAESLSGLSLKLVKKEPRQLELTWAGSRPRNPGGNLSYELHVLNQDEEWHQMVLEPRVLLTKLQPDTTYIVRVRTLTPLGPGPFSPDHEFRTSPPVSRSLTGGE

[2] = biological target: T2, mouse EphA3 extracellular region-Fc-His protein (mouse; human, UniProt P29319 21-540); experiment: as above
T2 construct: extracellular domain; not shown: Fc region of human IgG1; histidine tag
T2 sequence (looked up): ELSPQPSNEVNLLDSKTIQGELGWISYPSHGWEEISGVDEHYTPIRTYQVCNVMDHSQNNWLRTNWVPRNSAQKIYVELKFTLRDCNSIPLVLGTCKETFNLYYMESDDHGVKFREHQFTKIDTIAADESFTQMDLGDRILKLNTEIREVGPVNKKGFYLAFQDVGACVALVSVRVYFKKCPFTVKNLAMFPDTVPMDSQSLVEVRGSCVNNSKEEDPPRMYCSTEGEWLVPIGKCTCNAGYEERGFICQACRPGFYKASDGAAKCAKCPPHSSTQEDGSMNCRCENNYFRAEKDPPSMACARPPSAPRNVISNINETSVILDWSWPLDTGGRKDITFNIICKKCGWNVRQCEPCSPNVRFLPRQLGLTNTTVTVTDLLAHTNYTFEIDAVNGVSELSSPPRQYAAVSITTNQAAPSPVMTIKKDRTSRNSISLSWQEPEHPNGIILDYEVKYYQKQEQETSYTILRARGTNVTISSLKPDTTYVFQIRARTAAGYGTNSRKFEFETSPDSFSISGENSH

B1: humanized anti-EphA4 monoclonal antibody (antibody B) (antibody, human IgG2, V domains shown)
VH: QVQLVESGGGVVQPGRSLRLSCAVSGFSLTRFGVHWVRQAPGKGLEWVAVIWRGGSTDYNAAFMSRLTISKDNSKNTVYLQMNSLRAEDTAVYYCAKESLFGVYYDYGYYSMDYWGQGTTVTVSS
VL: DIQMTQSPSSLSASVGDRVTITCRASQEISGYLSWLQQKPGKAPKRLIYAASTLDSGVPSRFSGSRSGTEYTLTISSLQPEDFATYYCLQYASYPLTFGGGTKVEIKR
notes: expressed in Expi293F cells; also called humanized antibody of antibody A; HK2-42 / L1-8
B1: no binding (tested: 10 µg/mL) [1]; no binding (tested: 10 µg/mL) [2].
